Test results published in PMC12408800.

Target: KhpB from Thermus thermophilus (Thermus thermophilus HB8)
Assay: SEC

stoichiometry N: 2
Substance: KhpB from Thermus thermophilus (natural protein)
